The target of assay [1] is AfTrax D114A catalytic mutant (Archaeoglobus fulgidus). Nature of the assay: crystal structure.
Assay [2] addresses AfTrax (Archaeoglobus fulgidus Trax homologue, AF2260), wild type (Archaeoglobus fulgidus). Description: crystal structure.
Assay [3] shares this target. Description: SEC. (In gel filtration, larger molecules generally elute earlier.)

On to “AfTrax D114A catalytic mutant (natural protein)”, for which the stoichiometry N (commonly the number of molecules, sites or subunits per partner or assembly) in assay [1] came out at 8.
In the case of “AfTrax (Archaeoglobus fulgidus Trax homologue, AF2260), wild type (natural protein)”, the stoichiometry N in assay [2] and in assay [3] was 8 throughout.

The values are drawn from publication PMC3597040.
